Experiments:
[1] = type: physicochemical
Method: Measurement of chemical stability of DHA5. The dehydro residues of nisin and subtilin have vinyl protons that give well-separated resonances in the proton NMR spectrum, Liu and Hansen, Appl. Environ. Microbiol., 56, p. 251 (1990). The areas of the vinyl proton peaks in the NMR spectrum were measured, and chemical modification of DHA5 over time was taken as the decrease in peak area of the DHA5 vinyl protons in subtilin and in E4I-subtilin as compared to zero time. Proton NMR spectra were obtained using a Bruker AMX-500 NMR spectrometer. The spectra were obtained at a constant temperature of 295K, using selective solvent suppression.
Chemical and biological stability of natural subtilin. The natural producer of subtilin is B. subtilis ATCC 6633. […] These dissolved samples were incubated at room temperature, and from time to time, the NMR spectrum of the one sample and the biological activity of the other sample against Bacillus cereus spores were determined. […]
E4I-subtilin has enhanced chemical and biological stability. The central design strategy in the construction of a stable mutant of subtilin was based on the idea that the chemical and biological stabilities of subtilin are determined by the chemical reactivity of DHA5; and that DHA5 in natural subtilin is unstable because the Glu4 carboxyl participates in its chemical modification (FIG. 7). […]

Bacillus cereus spores = test: Biological stability: activity against Bacillus cereus spores over time of incubation; type: cell-based; details: 50 mM NaPi pH 6.8, room temperature, compared with DHA5 disappearance
Method: (§1) Measurement of biological stability of subtilin. Biological activity against Bacillus cereus spores was measured by a liquid assay in which various concentrations of subtilin were added to a suspension of Bacillus cereus T spores in 15 ml polypropylene tubes, and inhibitory effects were evaluated by phase-contrast microscopy as described previously (Morris et al, J. Biol. Chem., 259, 13590-13594 (1984) and Appl. Environ. Microbiol., 42, 958-962 (1981)). The amount of subtilin required to inhibit spore outgrowth during the 3 hour assay period was used as a measure of antimicrobial activity. Relative amounts of subtilin were estimated from the area of the subtilin peak (measured at 254 nm) that eluted from the C-18 analytical HPLC column during purification. The amounts were converted to molar quantities of subtilin by comparing the peak area of subtilin with that of a known molar quantity of a nisin standard (21). For this purpose, the extinction coefficients of nisin and subtilin at 254 nm were assumed to be the same, in that absorbance at this wavelength is mainly due to the same three dehydro residues present in both peptides. The biological activity against Bacillus cereus spores of the E4I-subtilinmutant was determined in the same way as for natural subtilin.
Chemical and biological stability of natural subtilin. The natural producer of subtilin is B. subtilis ATCC 6633. […]

[2] = reported; cited from earlier work
Bacillus cereus T spores = test: Spore outgrowth liquid assay (amount required to inhibit spore outgrowth during 3 hour assay); type: cell-based
Method: as §1
E4I-subtilin has enhanced specific activity. […]

SMILES: C=C(NC(=O)[C@@H](NC(=O)[C@H](CCCCN)NC(=O)[C@@H]1CSC(C)[C@H]2NC(=O)[C@H](CC(C)C)NC(=O)[C@H](NC(=O)[C@H](CCC(N)=O)NC(=O)[C@H](CC(C)C)NC(=O)[C@H](Cc3ccccc3)NC(=O)[C@@H]3CSC(C)[C@@H](NC(=O)[C@@H](NC(=O)[C@@H]4CSC(C)[C@@H](NC(=O)[C@@H]5CSC[C@@H](NC(=O)[C@H](CCCCN)NC(=O)[C@@H](N)Cc6c[nH]c7ccccc67)C(=O)N[C@@H]([C@@H](C)CC)C(=O)NC(=C)C(=O)N[C@@H](CC(C)C)C(=O)N5)C(=O)N5CCC[C@H]5C(=O)NCC(=O)N4)C(C)C)C(=O)NCC(=O)N[C@@H](C)C(=O)N[C@@H](CC(C)C)C(=O)N[C@@H](CCC(N)=O)C(=O)NC(=CC)C(=O)N3)C(C)SC[C@H](NC2=O)C(=O)N[C@@H](CC(N)=O)C(=O)N1)[C@@H](C)CC)C(=O)N[C@@H](CCCCN)C(=O)O (stereo partly drawn) [E4I-subtilin]
- increase in chemical and biological stability relative to natural subtilin [1]: 57 fold

SMILES: C=C1NC(=O)CC[C@@H](C(=O)O)NC(=O)[C@H](NC(=O)[C@H](CCCCN)NC(=O)[C@@H](N)Cc2c[nH]c3ccccc23)CSC[C@@H](C(=O)N[C@@H]2C(=O)N3CCC[C@H]3C(=O)NCC(=O)N[C@H](C(=O)N[C@H](C(=O)N[C@@H]3C(=O)NCC(=O)N[C@@H](C)C(=O)N[C@@H](CC(C)C)C(=O)N[C@@H](CCC(N)=O)C(=O)N/C(=C/C)C(=O)N[C@H](C(=O)N[C@@H](Cc4ccccc4)C(=O)N[C@@H](CC(C)C)C(=O)N[C@@H](CCC(N)=O)C(=O)N[C@@H]4C(=O)N[C@@H](CC(C)C)C(=O)N[C@H]5C(=O)N[C@@H](CSC4C)C(=O)NC(=O)[C@H](CC(N)=O)N[C@H](C(=O)N[C@@H](CCCCN)C(=O)N[C@H](C(=O)NC(=C)C(=O)N[C@@H](CCCCN)C(=O)O)[C@@H](C)CC)CSC5C)CSC3C)C(C)C)CSC2C)N[C@@H](CC(C)C)C(=O)NC1=O (stereo partly drawn) [subtilin]
- loss of biological activity against Bacillus cereus spores during incubation (Bacillus cereus spores): dropped at approximately this same rate
- t1/2 of chemical modification (disappearance) of DHA5, first-order ([1]; aqueous solution (D2O) pH 6.8, room temperature, NMR at 295K): 19 h
- light sensitivity [2]: light-sensitive
- concentration showing inhibition of spore outgrowth (Bacillus cereus T spores): about 1 μg per ml
- concentration showing inhibition of spore outgrowth (molar) (Bacillus cereus T spores): ~280 nM

— US5885811A, “Leader sequence inducing a post-translational modification of polypeptides in bacteria gene therefor and subtilin variant of enhanced stability and activity” (University of Maryland, priority 1995, dated 1999)
